Data taken from patent US20240239864A1 (US Dept. of Health and Human Services, published 2024).

Biological target: T1, HLA-A*02:01 CD22 p228-236 tetramer (human)
T1 construct: Bought monomer, loaded by UV peptide exchange and made into a tetramer; The streptavidin and label are not described; also called p-MHC tetramer
Assay: p-MHC tetramer staining of T cells of co-culture well D146W8, flow cytometry

B1: TCR clone D146W8 (native clone on the T cells of co-culture well D146W8) (TCR, V domains shown)
V domain 1: QKEVEQNSGPLSVPEGAIASLNCTYSDRGSQSFFWYRQYSGKSPELIMFIYSNGDKEDGRFTAQLNKASQYVSLLIRDSQPSDSATYLCAVKGAGGFKTIFGAGTRLFVKA
V domain 2: DTGVSQNPRHKITKRGQNVTFRCDPISEHNRLYWYRQTLGQGPEFLTYFQNEAQLEKSRLLSDRFSAERPKGSFSTLEIQRTEQGDSAMYLCASSPGNTEAFFGQGTRLTVV
notes: also called D146W8 TCR; not shown: constant region of the native human clone
B1: binds.
